Results from the supplement of paper PMC12667976.

B1: library; numbered along this chain (parent)
chain: MATDAALRRLLRLHRTEIAVAVDSAFPLLHALADHDVVPEDKFQETLHLKEKEGCPQAFHALLSWLLTQDSTAILDFWRVLFKDYNLERYGRLQPILDSFPKDVDLSQPRKGRKPPAVPKALVPPPRLPTKRKASEEARAAAPAALTPRGTASPGSQLKAKPPKKPESSAEQQRLPLGNGIQTMSASVQRAVAMSSGDVPGARGAVEGILIQQVFESGGSKKCIQVGGEFYTPSKFEDSGSGKNKARSSSGPKPLVRAKGAQGAAPGGGEARLGQQGSVPAPLALPSDPQLHQKNEDECAVCRDGGELICCDGCPRAFHLACLSPPLREIPSGTWRCSSCLQATVQEVQPRAEEPRPQEPPVETPLPPGLRSAGEEVRGPPGEPLAGMDTTLVYKHLPAPPSAAPLPGLDSSALHPLLCVGPEGQQNLAPGARCGVCGDGTDVLRCTHCAAAFHWRCHFPAGTSRPGTGLRCRSCSGDVTPAPVEGVLAPSPARLAPGPAKDDTASHEPALHRDDLESLLSEHTFDGILQWAIQSMARPAAPFPS

Variants of: B1
Assay: AIRE transcriptional activation functional score (insulin promoter-GFP; nonsense median 0, synonymous median 1) (normalised score); higher = higher AIRE activity (more reporter activation)
Details: with insulin promoter-GFP reporter in HEK293
Method: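 Deep mutational scan of full-length human AIRE (codon-optimized cDNA, DT-POPCode NNN libraries over three regions) integrated at a Bxb1 landing pad in HEK293 cells carrying an insulin core promoter-GFP reporter at a Flp-In site. Cells were sorted for the top 10% GFP about 14 days after transfection. Variant frequency log-ratios (select vs non-select, TileSeq) were rescaled so that the nonsense median is 0 and the synonymous median is 1, then averaged over biological replicates.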

AIRE transcriptional activation functional score: each site, then its substitutions
G305: H 0.264; I -0.493; K 1.08; L 1.31; M 0.666; N 1.16; P 0.937; Q 0.0432; R 0.945; S 0.9; T 1.35; V 1.07; W 0.779; Y 1.05
G306: A 0.976; C 0.922; D 0.954; E 1.14; F 0.459; H 1.11; I 0.377; K 0.811; L 0.492; M 0.451; N 1.18; P 0.361; Q 1.14; R 0.689; S 0.862; T 1.15; V 0.712; W 0.744; Y 0.924
E307: A 0.982; C 0.732; D 0.973; F 0.273; G 1.18; H 1.11; I 0.714; K 1.16; L 0.372; M 0.227; N 1.41; P 0.172; Q 1; R 1.28; S 1.2; T 1.03; V 1.2; W 0.599; Y 0.242
L308: A 1.06; C 1.43; D 0.755; E 1.02; F 0.909; G 0.784; H 1.33; I 0.905; K 0.0443; M 1.11; N 0.45; P 0.912; Q 1.3; R 0.932; S 1.12; T 0.853; V 1.16; W -0.607; Y 0.412
I309: A 0.827; C 0.782; D 0.964; E 1.43; F 1.18; G 1.11; H 0.916; K 0.472; L 0.505; M 0.866; N 1.23; P 1.07; Q 0.905; R 0.877; S 1.35; T 0.922; V 1.14; W 1.55; Y 1.19
C310: A 0.821; D 0.991; E 1.29; F 0.908; G 0.824; H 0.624; I 0.643; K 0.681; L 0.935; M 0.814; N 0.714; P 0.625; Q 0.509; R 0.907; S 0.768; T 0.959; V 0.912; W 0.433; Y 0.993
C311: A 1.11; D 0.772; E 0.822; F 0.878; G 0.921; H 1.01; I 0.604; K 1.13; L 0.839; M 1.62; N 1.47; P 1.34; Q 0.783; R 0.856; S 1.04; T 0.998; V 0.86; W 0.678; Y 0.792
D312: A 1.19; C 1.09; E 0.977; F 0.823; G 0.92; H 1; I 0.684; K 0.281; L 0.872; M 0.226; N 0.702; P 0.626; Q 1.17; R 0.976; S 0.764; T 0.953; V 0.485; W 0.939; Y 0.942
G313: A 0.829; C 1.51; D 1.39; E 0.654; F 1.13; H 1.5; I 0.979; K 0.717; L 1.28; M -0.04; N 0.241; P 0.756; Q 1; R 0.762; S 0.974; T 0.676; V 1.22; W 1.27; Y 1.16
C314: A 0.983; D 0.933; E 0.893; F 0.96; G 0.862; H 0.752; I 1.08; K 1; L 0.847; M 1.12; N 1.03; P 1.1; Q 0.418; R 0.842; S 1.07; T 1.14; V 1.13; W 0.709; Y 0.725
P315: A 0.558; C 0.985; D 1.08; E 0.802; F 0.835; G 0.618; H 0.985; I 1; K 0.481; L 0.924; M 1.22; N 1.1; Q 1.05; R 0.972; S 1.14; T 0.854; V 1.12; W 2.51; Y 0.976
R316: A 0.77; C 1.22; D 1.42; E 1.28; F 0.43; G 1.33; H 1.36; I 1.26; K 1.03; L 0.804; M 1.04; N 0.525; P 1.14; Q 1.05; S 1.19; T 1.06; V 0.904; W 1.28; Y 1.36
A317: C 1.28; D 1.25; E 1.37; F 0.813; G 0.974; H 1.06; I 0.854; K 0.241; L 1.01; M 0.781; N 0.865; P 1.23; Q -0.307; R 0.922; S 0.689; T 0.717; V 0.416; W 1.53; Y 0.503
F318: A 0.96; C 1.32; D 1.02; E 1.34; G 1.39; H 1.42; I 1.12; K 1.39; L 1.05; M 1.54; N 1.45; P 1.21; Q 1.31; R 1.47; S 1.19; T 1.31; V 0.874; W 0.907; Y 1.07
H319: A 1.16; C 1.43; D 1.24; E 1.39; F 0.514; G 1.28; I 0.263; K 1.15; L 0.424; M 0.921; N 1.26; P 1.4; Q 1.44; R 1.03; S 1.31; T 1.38; V 0.662; W 0.996; Y 0.961
L320: A 1.19; C 0.84; D 1.14; E 1.22; F 1.19; G 0.879; H 0.847; I 0.729; K 0.922; M 1.03; N 0.948; P 0.869; Q 0.88; R 1.16; S 0.896; T 1.13; V 0.976; W 0.685; Y 1.09
A321: C 0.948; D 0.763; E 0.854; F 1.1; G 1.21; H 0.857; I 1.33; K 1.09; L 0.961; M 1.58; N 1.06; P 1.3; Q 1.11; R 0.843; S 1.01; T 0.918; V 1.05; W 1.14; Y 0.541
C322: A 1.16; D 1.77; E 1.77; F 0.737; G 1.24; H 1.5; I 0.327; K 1.21; L 0.951; M 1.1; N 0.919; P 1.25; Q 1.2; R 0.999; S 1.41; T 1.21
